The target in the data set is Ec Hfq WT (Escherichia coli, UniProt P0A6X3 1-102). Briefly: fluorescence polarization. Background: Polarisation of emitted light reports the rotation of a fluorescent probe.

The values that follow come from article PMC4174437.

Ec Hfq WT, sequence (P0A6X3 whole entry): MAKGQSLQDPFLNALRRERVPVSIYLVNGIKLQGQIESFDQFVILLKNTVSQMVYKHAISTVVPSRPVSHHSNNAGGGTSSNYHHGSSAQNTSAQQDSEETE

UUUUUU (ssRNA) [U6 (5'-fluorescein)]: binding was put at a Kd of 3.3 nM.
